Experiment [1] concerns the target T1, FcγRIIb (extracellular domain, C-terminal His tag) (human, UniProt P31994 43-217).
T1 construct: extracellular domain; also called FcgRIIb; 2b; not shown: His tag attached to the C terminus
T1 sequence (looked up): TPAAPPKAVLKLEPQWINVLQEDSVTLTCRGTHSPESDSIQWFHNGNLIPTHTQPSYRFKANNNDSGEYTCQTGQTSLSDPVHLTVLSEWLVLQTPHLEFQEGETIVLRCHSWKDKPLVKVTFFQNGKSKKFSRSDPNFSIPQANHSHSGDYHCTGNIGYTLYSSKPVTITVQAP
Put plainly: SPR (Biacore), antibody captured on antigen-peptide chip, FcγR as analyte; relative binding amount. The protocol:
(§1) The heterodimerized antibodies He Abs in which one of the H chains was introduced with an alteration were assayed for their binding activities to each activating FcγR and inhibitory FcγR according to the method described in Example 4. […] The activating FcγRs in FIGS. 26, 27, 28, and 29 are FcγRIa, FcγRIIa (R), FcγRIIa (H), and FcγRIIIa, respectively.
(§2) Analysis of interaction between objective antibody and the FcγR was carried out using Biacore T100 (GE Healthcare). HBS-EP+ (GE Healthcare) was used as the running buffer, and the measurement temperature was set to 25° C. Chips produced by immobilizing the antigen peptide by the amine coupling method to a Series S Sencor Chip CM5 (GE Healthcare), or alternatively, chips produced by allowing preliminarily biotinylated antigen peptides to interact with and immobilize onto a Series S Sensor Chip SA (certified) (GE Healthcare) were used. Antibodies of interest were captured onto an antigen peptide-immobilized chip, and allowed to interact to each FcγR diluted with running buffer. To regenerate and repeatedly use the chip, the antibodies captured on the chip were washed off by reacting 10 mM glycine-HCl, pH 1.5.

In experiment [2] the target is T2, FcγRIIa R (extracellular domain, C-terminal His tag) (human, UniProt P12318 34-217).
T2 construct: extracellular domain; also called FcgRIIa R type; 2aR; not shown: His tag attached to the C terminus
T2 sequence (looked up): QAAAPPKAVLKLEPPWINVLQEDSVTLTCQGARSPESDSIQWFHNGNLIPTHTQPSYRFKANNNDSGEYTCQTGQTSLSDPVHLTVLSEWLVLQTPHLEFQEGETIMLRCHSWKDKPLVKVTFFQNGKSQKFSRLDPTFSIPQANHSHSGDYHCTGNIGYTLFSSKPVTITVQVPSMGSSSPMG
The experiment is described as above. The protocol:
as §1, §2

The target in experiment [3] is T3, FcγRIIb, extracellular domain with C-terminal His tag (human, UniProt P31994 43-217).
T3 construct: extracellular domain; also called 2b; FcgRIIb; not shown: His tag at the C terminus
T3 sequence (looked up): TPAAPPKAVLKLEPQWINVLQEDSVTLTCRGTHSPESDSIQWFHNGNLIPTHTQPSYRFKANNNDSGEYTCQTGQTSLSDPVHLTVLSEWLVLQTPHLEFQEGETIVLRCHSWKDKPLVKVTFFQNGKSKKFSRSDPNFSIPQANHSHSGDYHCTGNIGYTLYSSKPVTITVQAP
The experiment in a line: SPR (Biacore), antibody captured on antigen-peptide chip, FcγR as analyte; GpH7-A5/GpH7-B3/GpL16-k0 = 100. The protocol:
as §1, §2

Experiment [4] addresses T4, FcγRIIa H (FcγRIIa type H, His at position 131), extracellular domain with C-terminal His tag (human, UniProt P12318 34-217).
T4 construct: extracellular domain; also called 2aH; FcgRIIa H; not shown: His tag at the C terminus
T4 sequence (looked up): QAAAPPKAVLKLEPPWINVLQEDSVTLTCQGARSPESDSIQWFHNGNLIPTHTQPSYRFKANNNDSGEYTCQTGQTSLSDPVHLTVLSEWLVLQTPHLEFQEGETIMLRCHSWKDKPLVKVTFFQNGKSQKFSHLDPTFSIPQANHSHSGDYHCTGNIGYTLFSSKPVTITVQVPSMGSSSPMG
The description is as above. The protocol:
as §1, §2

Experimental findings from patent publication US20180155451A1 (published 2018) are described below.

B1: GpH7-A5/GpH7-B3 variant T335_02A/GpL16-k0 (antibody, human IgG1, kappa)
heavy 1: not shown
heavy 2: not shown
light: DIVMTQSPLSLPVTPGEPASISCQASESLVHSNRNTYLHWYLQKPGQSPQLLIYKVSNRFSGVPDRFSGSGSGTDFTLKISRVEAEDVGVYYCSQNTHVPPTFGQGTKVEIERTVAAPSVFIFPPSDEQLKSGTASVVCLLNNFYPREAKVQWKVDNALQSGNSQESVTEQDSKDSTYSLSSTLTLSKADYEKHKVYACEVTHQGLSSPVTKSFNRGEC
notes: Heterodimerized anti-glypican-3 IgG1; alteration in only one H chain (GpH7-B3 side); also called He Ab
Turning to B1, the He/Con_2b in experiment [1] is 94 % of control (GpH7-A5/GpH7-B3/GpL16-k0 = 100). In addition, the He/Con_2aR in experiment [2] was 102 % of control (GpH7-A5/GpH7-B3/GpL16-k0 = 100).

B2: GpH7-A5/GpH7-B3 variant T335_06M/GpL16-k0 (antibody, human IgG1, kappa)
heavy 1: not shown
heavy 2: not shown
light: DIVMTQSPLSLPVTPGEPASISCQASESLVHSNRNTYLHWYLQKPGQSPQLLIYKVSNRFSGVPDRFSGSGSGTDFTLKISRVEAEDVGVYYCSQNTHVPPTFGQGTKVEIERTVAAPSVFIFPPSDEQLKSGTASVVCLLNNFYPREAKVQWKVDNALQSGNSQESVTEQDSKDSTYSLSSTLTLSKADYEKHKVYACEVTHQGLSSPVTKSFNRGEC
notes: as for B1
In the case of B2, the He/Con_2b in experiment [1] was 99.4 % of control (GpH7-A5/GpH7-B3/GpL16-k0 = 100). Besides, the He/Con_2aR in experiment [2] was 105 % of control (GpH7-A5/GpH7-B3/GpL16-k0 = 100).

B3: GpH7-A5/GpH7-B3 variant T335_12R/GpL16-k0 (antibody, human IgG1, kappa)
heavy 1: not shown
heavy 2: not shown
light: DIVMTQSPLSLPVTPGEPASISCQASESLVHSNRNTYLHWYLQKPGQSPQLLIYKVSNRFSGVPDRFSGSGSGTDFTLKISRVEAEDVGVYYCSQNTHVPPTFGQGTKVEIERTVAAPSVFIFPPSDEQLKSGTASVVCLLNNFYPREAKVQWKVDNALQSGNSQESVTEQDSKDSTYSLSSTLTLSKADYEKHKVYACEVTHQGLSSPVTKSFNRGEC
notes: as for B1
For the molecule B3, in experiment [1], the He/Con_2b was 91.9 % of control (GpH7-A5/GpH7-B3/GpL16-k0 = 100). Besides, the He/Con_2aR in experiment [2] is 100 % of control (GpH7-A5/GpH7-B3/GpL16-k0 = 100).

B4: GpH7-A5/GpH7-B3 variant T335_05P/GpL16-k0 (antibody, human IgG1, kappa)
heavy 1: not shown
heavy 2: not shown
light: DIVMTQSPLSLPVTPGEPASISCQASESLVHSNRNTYLHWYLQKPGQSPQLLIYKVSNRFSGVPDRFSGSGSGTDFTLKISRVEAEDVGVYYCSQNTHVPPTFGQGTKVEIERTVAAPSVFIFPPSDEQLKSGTASVVCLLNNFYPREAKVQWKVDNALQSGNSQESVTEQDSKDSTYSLSSTLTLSKADYEKHKVYACEVTHQGLSSPVTKSFNRGEC
notes: as for B1
B4: the He/Con_2b in experiment [1] was 99.9 % of control (GpH7-A5/GpH7-B3/GpL16-k0 = 100). Besides, the He/Con_2aR in experiment [2] was 104 % of control (GpH7-A5/GpH7-B3/GpL16-k0 = 100).

B5: GpH7-A5/GpH7-B3 variant K326_03V/GpL16-k0 (antibody, human IgG1, kappa)
heavy 1: not shown
heavy 2: not shown
light: DIVMTQSPLSLPVTPGEPASISCQASESLVHSNRNTYLHWYLQKPGQSPQLLIYKVSNRFSGVPDRFSGSGSGTDFTLKISRVEAEDVGVYYCSQNTHVPPTFGQGTKVEIERTVAAPSVFIFPPSDEQLKSGTASVVCLLNNFYPREAKVQWKVDNALQSGNSQESVTEQDSKDSTYSLSSTLTLSKADYEKHKVYACEVTHQGLSSPVTKSFNRGEC
notes: Heterodimerized IgG1 (He Ab); mutation only in the GpH7-B3 chain; also called He Ab K326V
As to B5, the “He/Con_2b (relative binding activity)” value in experiment [3] was 175 % of control. For the same molecule, in experiment [4], the “He/Con_2aH (relative binding activity)” value was 97 % of control.

B6: GpH7-A5/GpH7-B3 variant T335_01G/GpL16-k0 (antibody, human IgG1, kappa)
heavy 1: not shown
heavy 2: not shown
light: DIVMTQSPLSLPVTPGEPASISCQASESLVHSNRNTYLHWYLQKPGQSPQLLIYKVSNRFSGVPDRFSGSGSGTDFTLKISRVEAEDVGVYYCSQNTHVPPTFGQGTKVEIERTVAAPSVFIFPPSDEQLKSGTASVVCLLNNFYPREAKVQWKVDNALQSGNSQESVTEQDSKDSTYSLSSTLTLSKADYEKHKVYACEVTHQGLSSPVTKSFNRGEC
notes: as for B1
On to B6, for which, in experiment [1], the He/Con_2b is 96.7 % of control (GpH7-A5/GpH7-B3/GpL16-k0 = 100). Moreover, the He/Con_2aR in experiment [2] is 104 % of control (GpH7-A5/GpH7-B3/GpL16-k0 = 100).

B7: GpH7-A5/GpH7-B3 variant H268_20W/GpL16-k0 (antibody, human IgG1, kappa)
heavy 1: not shown
heavy 2: not shown
light: DIVMTQSPLSLPVTPGEPASISCQASESLVHSNRNTYLHWYLQKPGQSPQLLIYKVSNRFSGVPDRFSGSGSGTDFTLKISRVEAEDVGVYYCSQNTHVPPTFGQGTKVEIERTVAAPSVFIFPPSDEQLKSGTASVVCLLNNFYPREAKVQWKVDNALQSGNSQESVTEQDSKDSTYSLSSTLTLSKADYEKHKVYACEVTHQGLSSPVTKSFNRGEC
notes: Heterodimerized IgG1 (He Ab); mutation only in the GpH7-B3 chain; also called He Ab H268W
In the case of B7, the “He/Con_2b (relative binding activity)” value in experiment [3] was 111 % of control. In addition, the “He/Con_2aH (relative binding activity)” value in experiment [4] was 95.8 % of control.

B8: GpH7-A5/GpH7-B3 variant S337_19Q/GpL16-k0 (antibody, human IgG1, kappa)
heavy 1: not shown
heavy 2: not shown
light: DIVMTQSPLSLPVTPGEPASISCQASESLVHSNRNTYLHWYLQKPGQSPQLLIYKVSNRFSGVPDRFSGSGSGTDFTLKISRVEAEDVGVYYCSQNTHVPPTFGQGTKVEIERTVAAPSVFIFPPSDEQLKSGTASVVCLLNNFYPREAKVQWKVDNALQSGNSQESVTEQDSKDSTYSLSSTLTLSKADYEKHKVYACEVTHQGLSSPVTKSFNRGEC
notes: as for B1
Take B8: the He/Con_2b in experiment [1] is 99.7 % of control (GpH7-A5/GpH7-B3/GpL16-k0 = 100). Further, the He/Con_2aR in experiment [2] is 106 % of control (GpH7-A5/GpH7-B3/GpL16-k0 = 100).
